The results in this text go back to publication PMC10675845.

What all share (test): single-cell, single-molecule pull-down
The target of one experiment is GFP::CDC-42 (C. elegans) (UniProt Q05062).
For experiment [1], the target named is GFP::CDC-42(S71E) (C. elegans) (UniProt Q05062).
The target of experiment [2] is GFP::CDC-42(S71A) (C. elegans) (UniProt Q05062).

In general, koff refers to a measure of how fast the partners let go of each other. Read a high koff as fast dissociation. As to “HaloTag::aPKC (from UniProt Q19266 1-597) (enzyme)”, the dissociation rate constant (koff) with GFP::CDC-42 (C. elegans) is 0.057 s⁻¹; in experiment [1] it was 0.099 s⁻¹; in experiment [2], 0.057 s⁻¹.
